16 molecules from US20150274802A1 can be followed below.

Square brackets hold non-standard residues; d marks the D form. Primed or numbered codes have the meaning given here. Ends that are not written are not given here. PEG4″ = 4-unit polyethylene glycol spacer; PEG8″ = 8-unit polyethylene glycol spacer

What all share (test): cell-based or functional assay
In experiment [1] the target is type A insulin receptor, P06213.
Experiment [2] has as its target type B insulin receptor, P06213.
Experiment [3] has as its target type A insulin receptor (UniProt P06213).
Experiment [4] concerns the target type B insulin receptor (UniProt P06213).
For experiment [5], the target named is human IGF-1 receptor (human) (UniProt P08069).

B1: MIU-57: B1-PEG20K MIU-35 (ligand)
chain: {PEG 20 kDa}-GPEHLCGAHLVDALYLVCGDRGFYGYGSSSRRAPQTGIVDECCHRSCDLRRLENYCN
modifications: ends and bridges not checked
For the molecule B1, in experiment [1], the % (potency at the receptor, assay not named) came to 4.5%; the % Insulin Activity (in vitro, assay not named) was found to be 3.1%; the Phosphorylation (EC50), % IR-A was 4.5%. In experiment [2], this molecule returned a % (potency at the receptor, assay not named) of 1.1%; a % Insulin Activity (in vitro, assay not named) of 1.1%; a Phosphorylation (EC50), % IR-B of 1.1%.

B2: MIU-79 di-10K-SC: B1,A14-10K B^1(H5,10Y16L17R29)30-C^1des9-12-A^1(H8,K14,N18,21) (ligand)
chain: {PEG 10 kDa}-GPEHLCGAHLVDALYLVCGDRGFYFNKRTGYGSSSRRGIVDECCHRSCDLK(PEG 10 kDa)RLENYCN
modifications: ends and bridges not checked
On to B2, for which the % activity in vitro in experiment [1] is 1.7%; in experiment [2], 0.2%.

B3: MIU-78 mono-20K-TC: B1-20K B^1(H5,10Y16L17K29)29:A^1(H8N18,21) (ligand)
chain 1: GPEHLCGAHLVDALYLVCGDRGFYFNKK
chain 2: GIVDECCHRSCDLRRLENYCN
As for B3, the % activity in vitro in experiment [3] was 8.2%; in experiment [4], 3.2%.

B4: DP3(TC): B^1(H5,10Y16L17K29)29:A^1(H8,N18,21) (ligand)
chain 1: GPEHLCGAHLVDALYLVCGDRGFYFNKK
chain 2: GIVDECCHRSCDLRRLENYCN
Consider B4, for which the % activity in vitro amounted to 160% in experiment [1] and 33.1% in experiment [2].

B5: MIU-43 DP8Mut3: B^1(H5,10Y16L17R29)30-C^1des9-12-A^1(H8,N18,21) (ligand)
chain: GPEHLCGAHLVDALYLVCGDRGFYFNKRTGYGSSSRRGIVDECCHRSCDLRRLENYCN
Regarding B5, the % activity in vitro in experiment [1] was found to be 97.5%; in experiment [2], 16.7%.

B6: DP8Mut3KA14: B^1(H5,10Y16L17R29)30-C^1des9-12-A^1(H8,K14,N18,21) (ligand)
chain: GPEHLCGAHLVDALYLVCGDRGFYFNKRTGYGSSSRRGIVDECCHRSCDLKRLENYCN
Regarding B6, the % activity in vitro in experiment [1] was determined as 132%; in experiment [2], 12.6%.
As for GPEHLCGAHLVDALYLVCGDRGFYFNKKGIVDECCHRSCDLRRLENYCN (ligand) [DP3(SC): B^1(H5,10Y16L17K29)29-A^1(H8,N18,21)], the % activity in vitro in experiment [1] came to 0.03%.
Turning to GPEHLCGAHLVDALYLVCGDRGFYFNKKGIVDECCHRSCDLRRLENYCN (ligand) [MIU-77 mono-20K-SC: B1-20K B^1(H5,10Y16L17K29)29-A^1(H8N18,21)], the % activity in vitro in experiment [3] came to 0.1%.
On to Ac-GPEHLCGAELVDALYLVCGDRGFY[PEG8″]K(PEG 20 kDa)[PEG4″]GIVDECCFRSCDLRRLENYCN (ligand, cysteine pairing not given here) [MIU-56: C8-PEG20K B^1(H5,Y16,L17)25-PEG8-K-PEG4-A^1(N18,N21)], for which, in experiment [1], the % Insulin Activity (in vitro, assay not named) came out at 14.8% and the Phosphorylation (EC50), % IR-A was 14.8%. This molecule also yielded a Phosphorylation (EC50), % IR-B in experiment [2] of 2%.

B7: di-10K-TC: B1,A14-10K B^1(H5,10Y16L17R29)29:A^1(H8K14N18,21) (ligand)
chain 1: {PEG 10 kDa}-GPEHLCGAHLVDALYLVCGDRGFYFNKR
chain 2: GIVDECCHRSCDLK(PEG 10 kDa)RLENYCN
modifications: ends and bridges not checked
Turning to B7, the % activity in vitro came out at 6.4% in experiment [1] and 2.1% in experiment [2].

B8: GE5W-B^1(A5H10Y16L17)25-C^1-A^1(H8N18N21) (ligand)
chain: GEEEEEWGPEALCGAHLVDALYLVCGDRGFYGYGSSSRRAPQTGIVDECCHRSCDLRRLENYCN
As to B8, the % (potency at the receptor, assay not named) is 0.3% in experiment [5], 8.6% in experiment [3] and 2.3% in experiment [4].

B9: GE5W-B^1(H5,10Y16L17)25-C^1-A^1(A1H8N18,21) (ligand)
chain: GEEEEEWGPEHLCGAHLVDALYLVCGDRGFYGYGSSSRRAPQTAIVDECCHRSCDLRRLENYCN
In the case of B9, the % (potency at the receptor, assay not named) in experiment [1] came to 2.1%; in experiment [2], 0.7%.

B10: MIU-35: B^1(H5,10Y16L17)25-C^1-A^1(H8N18,21) (ligand)
chain: GPEHLCGAHLVDALYLVCGDRGFYGYGSSSRRAPQTGIVDECCHRSCDLRRLENYCN
As for B10, the % (potency at the receptor, assay not named) in experiment [5] was 3.2%; in experiment [3], 61.4%; in experiment [4], 17.4%. Moreover, the figures for the % Insulin Activity (in vitro, assay not named) in experiment [5], in experiment [3] and in experiment [4] were 3.2%, 61.4% and 17.4%, respectively.

B11: B^1(H5,10Y16L17A24)25-C^1-A^1(H8N18,N21) (ligand)
chain: GPEHLCGAHLVDALYLVCGDRGAYGYGSSSRRAPQTGIVDECCHRSCDLRRLENYCN
On to B11, for which the % (potency at the receptor, assay not named) stood at 0.3% in experiment [5], 0.1% in experiment [3] and 0.4% in experiment [4].

B12: B^1(H5,10Y16L17)25-C^1-A^1(T8N18,21) (ligand)
chain: GPEHLCGAHLVDALYLVCGDRGFYGYGSSSRRAPQTGIVDECCTRSCDLRRLENYCN
As to B12, the % (potency at the receptor, assay not named) in experiment [1] turned out to be 20.4%; in experiment [2] it was 8.4%.

B13: B^1(A5H10Y16L17)25-C^1-A^1(H8N18N21) (ligand)
chain: GPEALCGAHLVDALYLVCGDRGFYGYGSSSRRAPQTGIVDECCHRSCDLRRLENYCN
With B13, the results for the % (potency at the receptor, assay not named) in experiment [5] and in experiment [4] were 2.5% and 5.7%, respectively.
